The record followed here is patent publication US9951373B2, “Oplophorus-derived luciferases, novel coelenterazine substrates, and methods of use” (Promega Corporation, priority 2010, dated 2018).

In this experiment the test system is HEK293 cells. Briefly: Luminescence in sandwich background, HEK293 cells. It is filed as cell-based, human. The settings on record: non-sandwich versus sandwich. The procedure: The PCR library in the Id-OgLuc-HT7 sandwich background was screened for additional variants with increased luminescence compared to 9B8 opt+K33N in sandwich background. Selected variants were then assayed in HEK293 and NIH3T3 cells. […] 1F7 (F) (SEQ ID NOs: 84 and 85) and 15H1 (F) (SEQ ID NOs: 86 and 87) had at least 1.3 fold-increase in luminescence in E. coli. 1F7 (F) was brighter than 9B8 opt+K33N in the sandwich background in HEK293 and NIH3T3 cells.
The variants 9B8 opt+K33N+T39T+K43R+Y68D (“V2”; SEQ ID NOs: 92 and 93), 9B8 opt+K33N+L27V+K43R+Y68D (SEQ ID NOs: 339 and 340), 9B8 opt+K33N+L27V+T39T+K43R+S66N (SEQ ID NOs: 341 and 342), and 9B8 opt+K33N+L27V+T39T+K43R+Y68D (“L27V”; SEQ ID NOs: 88 and 89) were subcloned into the Id-OgLuc-HT7 sandwich background as described above and assayed in HEK293 and NIH3T3 cells as described above. The luminescence generated by the sandwiched variants were compared to the luminescence generated by the […] sandwich (SEQ ID NOs: 59 and 60) (Table 38). The L27V sandwich (SEQ ID NOs: 90 and 91) and V2 sandwich (SEQ ID NOs: 94 and 95) had at least 1.3× fold-increase in luminescence in HEK293 and NIH3T3 cells.
The sandwich and non-sandwich versions of the variants V2, 9B8 opt+K33N+L27V+K43R+Y68D, 9B8 opt+K33N+L27V+T39T+K43R+S66N, and L27V were assayed in HEK293 and NIH3T3 cells as described in Example 37. The luminescence generated by the non-sandwiched variants was compared to the luminescence generated by the sandwiched variants (Table 39).

B1: L27V: 9B8 opt+K33N variant with L27V, T39T, K43R, Y68D (SEQ ID NO: 89) (protein)
chain: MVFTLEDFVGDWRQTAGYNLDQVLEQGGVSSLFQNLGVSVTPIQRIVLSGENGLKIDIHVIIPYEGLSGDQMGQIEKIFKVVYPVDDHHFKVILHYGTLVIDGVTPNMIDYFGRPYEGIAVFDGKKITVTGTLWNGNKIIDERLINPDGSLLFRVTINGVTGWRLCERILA
As for B1, the “Fold-decrease in luminescence in the presence of sandwich background, HEK 293” value was 6.
